Assays:
[1] = target: T1, KTLTWHSA; experiment: peptide microarray, 1 µg/mL LY75_A1, anti-human IgG Alexa 647
T1 peptide: KTLTWHSA

[2] = target: T2, NLYKIIPK; experiment: as above
T2 peptide: NLYKIIPK

[3] = target: T3, LNNLYKII; experiment: as above
T3 peptide: LNNLYKII

[4] = target: T4, IIPKTLTW; experiment: as above
T4 peptide: IIPKTLTW

[5] = target: T5, YKIIPKTL; experiment: as above
T5 peptide: YKIIPKTL

[6] = target: T6, YLNNLYKI; experiment: as above
T6 peptide: YLNNLYKI

[7] = target: T7, KIIPKTLT; experiment: as above
T7 peptide: KIIPKTLT

[8] = target: T8, NNLYKIIP; experiment: as above
T8 peptide: NNLYKIIP

[9] = target: T9, PKTLTWHS; experiment: as above
T9 peptide: PKTLTWHS

[10] = target: T10, TLTWHSAK; experiment: as above
T10 peptide: TLTWHSAK

[11] = target: T11, IPKTLTWH; experiment: as above
T11 peptide: IPKTLTWH

[12] = target: T12, VKYLNNLY; experiment: as above
T12 peptide: VKYLNNLY

[13] = target: T13, LYKIIPKT; experiment: as above
T13 peptide: LYKIIPKT

[14] = target: T14, LY75 (DEC-205) on COLO205 cells (human, UniProt O60449 28-1722); experiment: competitive FACS on COLO205 cells
T14 construct: Endogenous LY75 on COLO205 human colorectal adenocarcinoma cells; also called Lymphocyte antigen 75
T14 sequence (O60449 28-1722 limits assumed): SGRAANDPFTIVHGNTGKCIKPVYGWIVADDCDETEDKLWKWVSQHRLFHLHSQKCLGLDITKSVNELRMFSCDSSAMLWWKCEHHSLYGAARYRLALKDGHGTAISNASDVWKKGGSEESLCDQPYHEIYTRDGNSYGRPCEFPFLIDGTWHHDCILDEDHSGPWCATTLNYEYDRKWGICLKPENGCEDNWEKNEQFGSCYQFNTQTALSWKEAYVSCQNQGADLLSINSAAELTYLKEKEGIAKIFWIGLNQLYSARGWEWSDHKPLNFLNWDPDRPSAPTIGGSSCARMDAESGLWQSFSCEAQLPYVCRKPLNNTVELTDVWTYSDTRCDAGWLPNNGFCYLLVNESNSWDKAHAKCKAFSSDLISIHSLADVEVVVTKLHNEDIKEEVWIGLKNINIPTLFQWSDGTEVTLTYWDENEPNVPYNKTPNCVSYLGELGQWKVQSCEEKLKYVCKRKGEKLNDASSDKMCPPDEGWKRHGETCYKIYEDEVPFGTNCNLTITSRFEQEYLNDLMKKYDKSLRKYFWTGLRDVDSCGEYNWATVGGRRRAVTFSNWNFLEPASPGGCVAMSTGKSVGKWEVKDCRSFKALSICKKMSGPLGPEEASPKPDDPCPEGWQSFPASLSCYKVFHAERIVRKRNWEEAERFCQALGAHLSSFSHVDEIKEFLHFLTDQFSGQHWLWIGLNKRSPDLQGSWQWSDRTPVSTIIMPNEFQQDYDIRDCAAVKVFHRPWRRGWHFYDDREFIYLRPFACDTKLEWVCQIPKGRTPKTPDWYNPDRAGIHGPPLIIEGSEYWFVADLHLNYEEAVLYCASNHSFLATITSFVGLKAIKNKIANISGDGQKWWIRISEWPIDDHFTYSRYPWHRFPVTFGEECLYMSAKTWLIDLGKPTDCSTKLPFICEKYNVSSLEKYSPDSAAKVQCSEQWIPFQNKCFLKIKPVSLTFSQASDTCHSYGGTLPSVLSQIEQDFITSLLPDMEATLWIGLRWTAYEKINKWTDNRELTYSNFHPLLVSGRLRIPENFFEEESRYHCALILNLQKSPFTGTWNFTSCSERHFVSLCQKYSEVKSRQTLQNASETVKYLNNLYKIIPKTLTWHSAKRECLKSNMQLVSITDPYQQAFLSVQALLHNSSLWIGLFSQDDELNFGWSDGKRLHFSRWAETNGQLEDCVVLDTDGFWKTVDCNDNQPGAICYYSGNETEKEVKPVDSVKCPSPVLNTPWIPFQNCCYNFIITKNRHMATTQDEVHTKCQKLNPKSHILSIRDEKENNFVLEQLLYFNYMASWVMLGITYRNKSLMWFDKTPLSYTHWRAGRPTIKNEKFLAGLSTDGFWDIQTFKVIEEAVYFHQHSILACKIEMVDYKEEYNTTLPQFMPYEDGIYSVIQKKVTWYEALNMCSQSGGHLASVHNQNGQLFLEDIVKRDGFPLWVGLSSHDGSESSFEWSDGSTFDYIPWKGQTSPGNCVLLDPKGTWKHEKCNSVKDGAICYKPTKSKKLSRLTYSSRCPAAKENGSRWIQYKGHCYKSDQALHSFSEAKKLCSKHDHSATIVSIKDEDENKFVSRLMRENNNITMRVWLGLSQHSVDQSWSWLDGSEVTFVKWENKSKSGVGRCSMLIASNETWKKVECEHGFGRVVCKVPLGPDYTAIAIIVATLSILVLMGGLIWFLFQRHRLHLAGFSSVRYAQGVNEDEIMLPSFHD

[15] = target: T15, LSCYKVFH; experiment: peptide microarray, 1 µg/mL LY75_A1, anti-human IgG Alexa 647
T15 peptide: LSCYKVFH

[16] = target: T16, CYKVFHAE; experiment: as above
T16 peptide: CYKVFHAE

[17] = target: T17, SLSCYKVF; experiment: as above
T17 peptide: SLSCYKVF

[18] = target: T18, SCYKVFHA; experiment: as above
T18 peptide: SCYKVFHA

[19] = target: Contiguous 8mer peptides of LY75 protein spanning residues 216 to 1666 of the full length LY75 protein (peptide microarray); experiment: peptide microarray, 1 ug/mL LY75_A1, anti-human IgG Alexa 647, scan at 635 nm
[20] = target: T19, LTYSNFHP; experiment: peptide microarray, 1 µg/mL LY75_A1, anti-human IgG Alexa 647
T19 peptide: LTYSNFHP

[21] = target: T20, VYFHQHSI; experiment: as above
T20 peptide: VYFHQHSI

[22] = target: T21, AVYFHQHS; experiment: as above
T21 peptide: AVYFHQHS

[23] = target: T22, EAVYFHQH; experiment: as above
T22 peptide: EAVYFHQH

[24] = target: T23, YFHQHSIL; experiment: as above
T23 peptide: YFHQHSIL

[25] = target: T24, DDHFTYSR; experiment: as above
T24 peptide: DDHFTYSR

[26] = target: T25, HRFPVTFG; experiment: as above
T25 peptide: HRFPVTFG

[27] = target: T26, HFTYSRYP; experiment: as above
T26 peptide: HFTYSRYP

[28] = target: T27, SRYPWHRF; experiment: as above
T27 peptide: SRYPWHRF

[29] = target: T28, RYPWHRFP; experiment: as above
T28 peptide: RYPWHRFP

[30] = target: T29, WHRFPVTF; experiment: as above
T29 peptide: WHRFPVTF

[31] = target: T30, FTYSRYPW; experiment: as above
T30 peptide: FTYSRYPW

[32] = target: T31, YPWHRFPV; experiment: as above
T31 peptide: YPWHRFPV

[33] = target: T32, DHFTYSRY; experiment: as above
T32 peptide: DHFTYSRY

[34] = target: T33, YSRYPWHR; experiment: as above
T33 peptide: YSRYPWHR

B1: LY75_A1 monoclonal antibody (antibody, V domains shown)
VH: EVQLVESGGGLVKPGGSLRLSCAASGFTYSNAWMSWVRQAPGKGLEWVGRIKSKTDGGTTDYAAPVQGRFTISRDDSKNTLYLQMNSLKTEDTAVYYCTIFGVVSFDYWGQGTLVTVSS
VL: DVQMTQSPSSLSASVGDRVTITCRASQSISDYLSWYQQRPGKAPNLLIYAASNLKTGVPSRFSGSGSGTDFTLTISTLQPEDFATYYCQQSYRSPWTFGQGTKVEIKR
notes: also called LY75A1 antibody; LY75_A1 antibody
B1: no binding (tested: 1 µg/mL) [1]; no binding (tested: 1 µg/mL) [2]; binds [3]. B1: no binding (tested: 1 µg/mL) [4]; no binding (tested: 1 µg/mL) [5]; binds [6]. B1: no binding (tested: 1 µg/mL) [7]; no binding (tested: 1 µg/mL) [8]; no binding (tested: 1 µg/mL) [9]. B1: no binding (tested: 1 µg/mL) [10]; no binding (tested: 1 µg/mL) [11]; binds [12]. B1: no binding (tested: 1 µg/mL) [13]; binds [14]; binds [15]. B1: no binding (tested: 1 µg/mL) [16]; binds [17]; binds [18]. For the same binder, the average signal for all spots on the array (signal intensity (scale 1-65535)) [19] was 885, the maximum signal intensity (signal intensity (scale 1-65535)) [19] was 25000 and the binding result [20] was “binds”. B1: binds [21]; binds [22]; binds [23]. B1: binds [24]; binds [25]; binds [26]. B1: binds [27]; binds [28]; binds [29]. B1: binds [30]; no binding (tested: 1 µg/mL) [31]; binds [32]. B1: binds [33]; binds [34].
